Test results published in patent US9556249B2, “Neuregulin antagonists and use thereof in treating cancer” (Genentech, Inc., priority 2010, dated 2017).

Columns and labels:
[1] = tested on: LSL-K-ras^G12D lung tumors; conditions: LSL-K-ras^G12D mice (Oliver et al., 2010); cited from earlier work
[2] = tested on: LSL-K-ras^G12D lung tumors; test: LSL-K-ras G12D x Z/EG mouse NSCLC model, FACS of GFP-positive tumor cells; format: in vivo; conditions: one week after final dose of cisplatin, vs vehicle controls
Protocol: In addition, the LSL-K-ras^G12D genetically engineered mouse model of NSCLC (Jackson et al., 2001) was crossed to the Z/EG Cre-reporter strain (Novak et al., 2000) and used in this study. Cisplatin (7 mg/kg i.p. every 7 days for 3 doses) was started 12 weeks after AdenoCre infection of the lungs (ie. tumor initiation). Lungs were collected 1 week after the last dose of chemotherapy and tumor cells were isolated by FACS after enzymatic digestion and dissociation. […] FIG. 2D (data presented as the average number of GFP positive cells per lung±SEM, n=6/group).

[3] = tested on: LSL-K-ras^G12D; p53^Fl/+ lung tumors; test: LSL-K-ras G12D; p53 Fl/+ lung tumor model, micro-CT tumor burden; format: in vivo, mice
[4] = tested on: KPL4; test: KPL4-GFP orthotopic breast cancer model, response to chemotherapy; format: in vivo, SCID/beiz mice; conditions: following completion of chemotherapy regimen; tumors subsequently recurred
Protocol: Several cancer models that show significant regression in response to chemotherapy followed by tumor relapse after the cessation of therapy (FIG. 1) were generated and used to study the cells that are responsible for tumor re-initiation. These cells are tumor reinitiating cells (TRICs). In order to generate the models, GFP labeled human tumor cells were transplanted subcutaneously, and when tumor size reached ˜200 mm^3, mice were treated with either vehicle or chemotherapy as shown in the respective models. GFP+ tumor cells were isolated from regressed or vehicle treated tumors by FACS-sorting after enzymatic digestion and dissociation. Tumors were collected a minimum of one week after the last dose of chemotherapy and before the resumption of tumor growth.
GFP-expressing sublines of the human breast cancer cell line KPL4 were transplanted orthotropically to the mammary fat pad of SCID/beiz mice. For the KPL4 model, chemotherapy consisted of Paclitaxel (20 mg/kg, i.v. every other day for 5 doses). FIG. 2C (data presented as mean tumor volume±SEM, n=12 mice/group).

[5] = tested on: LSL-K-ras^G12D; p53^Fl/Fl lung tumors; test: LSL-K-ras G12D; p53 Fl/Fl lung tumor model, micro-CT tumor burden; format: in vivo, mice
[6] = tested on: NRG1/HER3 signaling; test: HER4-ECD added to serum starved LKPH1 and LKPH2 cells, Western blotting; format: cell-based, mouse; conditions: HER4ECD 2 mg/ml, 48 hours
[7] = tested on: HER3; test: HER3 knockdown in Calu3-shHER3 cells, qPCR and Western blot; format: cell-based, human
[8] = tested on: Calu3-shHER3 xenograft tumors; test: Calu3-shHER3 xenograft tumor growth; format: in vivo, mice; conditions: dox treatment; vs sucrose TDT=11 days
[9] = tested on: H441 cells; test: Exogenous NRG1 stimulation of serum starved H441 cells, Western blotting; format: cell-based, human; conditions: 1 uM NRG1, ten minutes
[10] = tested on: H1299-shNRG1.2; test: H1299-shNRG1.2 in vivo study; conditions: magnitude of growth inhibition smaller than with shNRG1
[11] = tested on: NRG1 mRNA; test: NRG1 mRNA levels in H1299 subline expressing shNRG1.2; format: cell-based, human; conditions: compared with shNRG1
[12] = tested on: Calu3-shHer4 xenograft tumors; test: Calu3-shHER4 xenograft tumor growth; format: in vivo, mice; conditions: dox vs sucrose
[13] = tested on: HER4; test: HER4 knockdown in Calu3-shHER4 cells, qPCR; format: cell-based, human; conditions: dox 2 ug/ml

Molecule: N.N.[Cl][Pt][Cl] [cisplatin]
- survival [1]: does not result in prolonged survival
- number of GFP-positive tumor cells per lung [2]: significant decrease in tumor cell number
- average tumor burden at conclusion of study and overall tumor growth rate vs vehicle ([3]; cisplatin+control IgG2A): not significantly different

Molecule: CC(=O)O[C@H]1C(=O)[C@@]2(C)[C@H]([C@H](OC(=O)c3ccccc3)[C@]3(O)C[C@H](OC(=O)[C@H](O)[C@@H](NC(=O)c4ccccc4)c4ccccc4)C(C)=C1C3(C)C)[C@]1(OC(C)=O)CO[C@@H]1C[C@@H]2O [Paclitaxel]
- tumor size vs vehicle-treated mice [4]: significantly smaller

Molecule: HER4-ECD: fusion of the human HER4 extracellular domain to murine IgG2A Fc; ligand trap to sequester NRG1
- effect on tumor growth ([5]; HER4-ECD treatment alone): no effect
- tumor burden by micro-CT ([5]; day 28, cisplatin+HER4-ECD vs cisplatin+vehicle and all other groups): significant reduction in tumor burden
- p-HER3 levels [6]: diminished
- tumor growth (average tumor burden and tumor growth rate) ([3]; cisplatin+HER4-ECD combination): significant inhibition of tumor growth

B1: shHER3: dox-inducible shRNA to HER3 (SEQ ID NO: 7 and 8) (nucleic acid)
chain 1: GATCCCCAAGAGGATGTCAACGGTTATTCAAGAGATAACCGTTGACATCCTCTTTTTTTTGGAAA
chain 2: AGCTTTTCCAAAAAAAAGAGGATGTCAACGGTTATCTCTTGAATAACCGTTGACATCCTCTTGGG
- HER3 transcript levels ([7]; dox 2 ug/ml, qPCR): decreased
- extent of p-AKT down-regulation ([7]; in the presence of dox, compared with Calu3-shHER4): much greater
- time to doubling (TDT) [8]: 19 days

B2: NRG1: recombinant human NRG1 beta-1 extracellular domain (R&D systems), exogenous ligand (protein, UniProt Q02297 20-242, looked up)
extracellular domain: SGKKPESAAGSQSPALPPRLKEMKSQESAAGSKLVLRCETSSEYSSLRFKWFKNGNELNRKNKPQNIKIQKKPGKSELRINKASLADSGEYMCKVISKLGNDSASANITIVESNEIITGMPASTEGAYVSSESPIRISVSTEGANTSSSTSTSTTGTSHLVKCAEKEKTFCVNGGECFMVKDLSNPSRYLCKCQPGFTGARCTENVPMKVQNQEKAEELYQKR
modifications: extracellular domain
notes: recombinant human NRG1 beta-1 extracellular domain (R&D systems), exogenous ligand
- levels of p-Stat3 or p-Mek1/2 [9]: no detectable changes
- p-HER3 and p-AKT [9]: increase

B3: shNRG1.2: a different doxycycline-inducible shRNA to NRG1 (SEQ ID NO: 3 and 4) (nucleic acid)
chain 1: GATCCCCGAGTATATGTGCAAAGTGATTCAAGAGATCACTTTGCACATATACTCTTTTTTGGAAA
chain 2: AGCTTTTCCAAAAAAGAGTATATGTGCAAAGTGATCTCTTGAATCACTTTGCACATATACTCGGG
- response to chemotherapy upon NRG1 knockdown [10]: enhanced response to chemotherapy
- reduction in NRG1 mRNA levels [11]: more modest reduction

B4: shHER4: dox-inducible shRNA to HER4 (SEQ ID NO: 5 and 6) (nucleic acid)
chain 1: GATCCCCGATCACAACTGCTGCTTAATTCAAGAGATTAAGCAGCAGTTGTGATCTTTTTTGGAAA
chain 2: AGCTTTTCCAAAAAAGATCACAACTGCTGCTTAATCTCTTGAATTAAGCAGCAGTTGTGATCGGG
- inhibition of tumor growth [12]: not a notable inhibition of tumor growth
- HER4 transcript levels [13]: decreased
